Experimental data from patent US20200222503A1 (published 2020).

T1: murine PD-L2 on CHOK1 cells (murine, UniProt Q9WUL5 20-247)
T1 chain: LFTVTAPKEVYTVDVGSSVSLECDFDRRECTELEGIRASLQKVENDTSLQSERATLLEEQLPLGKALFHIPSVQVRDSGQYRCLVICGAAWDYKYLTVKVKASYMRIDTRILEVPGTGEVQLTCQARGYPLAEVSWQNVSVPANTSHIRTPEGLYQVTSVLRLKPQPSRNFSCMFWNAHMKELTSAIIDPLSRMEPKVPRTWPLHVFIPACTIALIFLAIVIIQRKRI

T2: murine OX40 on CHOK1 cells (murine, UniProt P47741 20-272)
T2 chain: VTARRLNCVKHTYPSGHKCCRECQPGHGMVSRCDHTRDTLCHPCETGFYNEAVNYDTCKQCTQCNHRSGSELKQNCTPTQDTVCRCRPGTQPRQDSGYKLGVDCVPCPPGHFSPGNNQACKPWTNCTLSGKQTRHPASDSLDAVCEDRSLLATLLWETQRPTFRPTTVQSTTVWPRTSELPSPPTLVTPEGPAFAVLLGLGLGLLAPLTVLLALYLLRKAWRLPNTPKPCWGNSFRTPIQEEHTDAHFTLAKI


Key:
mCD40L-Fc = assay: SPR
[1] = target: murine PD-L1 on CHOK1 cells (murine, UniProt Q9EP73 19-290); assay: flow
[2] = target: T1, murine PD-L2 on CHOK1 cells; assay: flow cytometry cell binding
[3] = target: T2, murine OX40 on CHOK1 cells; assay: flow cytometry cell binding

Sequence of murine PD-L1 on CHOK1 cells (Q9EP73 19-290): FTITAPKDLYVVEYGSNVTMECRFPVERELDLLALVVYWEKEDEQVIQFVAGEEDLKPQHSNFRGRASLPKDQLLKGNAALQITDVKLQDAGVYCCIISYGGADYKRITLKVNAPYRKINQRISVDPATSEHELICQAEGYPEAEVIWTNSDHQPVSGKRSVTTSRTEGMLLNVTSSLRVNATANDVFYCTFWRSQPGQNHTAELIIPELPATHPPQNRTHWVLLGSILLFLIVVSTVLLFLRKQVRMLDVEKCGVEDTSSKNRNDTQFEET

Row | Kd (mCD40L-Fc) [nM] | EC50 [1] [nM] | EC50 [2] [nM] | EC50 [3] [nM] | Binder
1 | 3.23 |  |  |  | mCD40 (receptor) VTCSDKQYLHDGQCCDLCQPGSRLTSHCTALEKTQCHPCDSGEFSAQWNREIRCHQHRHCEPNQGLRVKKEGTAESDTVCTCKEGQHCTSKDCEACAQHTPCIPGFGVMEMATETTDTVCHPCPVGFFSNQSSLFEKCYPWTSCEDKNLEVLQKGTSQTNVICGLKSRMR
2 |  | 27.8 | 47.7 | 6.28 | murine PD-1-Fc-OX40L chimeric protein (Fc fusion) LEVPNGPWRSLTFYPAWLTVSEGANATFTCSLSNWSEDLMLNWNRLSPSNQTEKQAAFCNGLSQPVQDARFQIIQLPNRHDFHMNILDTRRNDSGIYLCGAISLHPKAKIEESPGAELVVTERILETSTRYPSPSPKPEGRFQGMSSSPAKDPPIQRLRGAVTRCEDGQLFISSYKNEYQTMEVQNNSVVIKCDGLYIIYLKGSFFQEVKIDLHFREDHNPISIPMLNDGRRIVFTVVASLAFKDKVYLTVNAPDTLCEHLQINDGELIVVQLTPGYCAPEGSYHSTVNQVPL
